From patent US20260083859A1, “SUSTAINED TRANSGENE EXPRESSION OF MODIFIED ERT2 PEPTIDE-SUICIDE PROTEIN FUSION POLYPEPTIDES” (Senti Biosciences, Inc., priority 2023, published 2026)
“Also recorded” adds a separate entry of the source.

Legend:
iPSC clones = test: Apoptotic efficacy in individual construct clones treated with 4-OHT, Endoxifen or combinations; assay type: cell-based, human; settings: for apoptotic (killing) efficacy: 24 hours
Procedure: Next, individual clones that were determined to be suitable for further assessments were evaluated for 24 hours in the presence of 4-OHT at two different concentrations.
Individual Construct 1-4 clones were also assessed for their responses to another tamoxifen metabolite, Endoxifen. Clones were evaluated for 24 hours in the presence of Endoxifen at three different concentrations.
Tamoxifen is a prodrug that is broken down into its active metabolites in vivo. To model predicted drug concentrations in a patient, the clone Construct 1 c.165 was treated with various combinations of 4-OHT and Endoxifen, wherein 1.25 nM Endoxifen was combined with a concentration of 4-OHT ranging between 0.125 nM to 1 nM (FIG. 12A). […] In the next evaluation, 0.125 nM 4-OHT was combined with either 0.625 or 1.25 nM Endoxifen (FIG. 12B).

[1] = test system: PSC-derived myeloid progenitor cells; test: TamCasp9 Safety Switch activation in PSC-derived myeloid progenitor cells, AOPI staining, Incucyte SX5; assay type: cell-based, human
Procedure: A hPSC line engineered with TamCasp9 Construct 1 and an unedited parental control hPSC line were differentiated into myeloid progenitor cells through the addition of various growth factors and small molecules. Differentiated cells were plated at 1×10^5 cells/cm^2 in an ultra-low attachment cell culture plate for further myeloid cell maturation. After 7 days in maturation medium, cells were collected and frozen down.
For testing of TamCasp9 Safety Switch activation, myeloid cells were plated at 1.5×10^5 cells/cm^2 in a 96-well tissue culture plate with a 1:750 dilution of ViaStain AOPI Staining Solution (Nexcelom) in X-VIVO 15 Medium with 10 ng/mL GM-CSF. The kill switch was induced with 0, 1, 10 or 100 uM of Endoxifen over 3 days and images were collected every 6 hours on the Incucyte SX5 (Sartorius).
To better model predicted drug concentrations in a patient by testing activation of the kill switch against a range of tamoxifen metabolites, the PSC clone Construct 1 c.165, engineered to incorporate an exemplary modified ERT2 peptide-suicide protein fusion polypeptide construct (Table 3), was differentiated to myeloid progenitor cells as depicted in FIG. 13A. Differentiated cells were plated at 1×10^5 cells/cm^2 in an ultra-low attachment cell culture plate for further myeloid cell maturation. After 7 days in maturation medium, cells were collected and frozen down. For testing of TamCasp9 Safety Switch activation, myeloid cells were plated at 1.0×10^5 cells/cm^2 in a 96-well tissue culture plate with a 1:750 dilution of ViaStain AOPI Staining Solution (Nexcelom) in X-VIVO 15 Medium with 10 ng/mL GM-CSF. The kill switch was induced with varying concentrations of combination 4-OHT and Endoxifen treatment over 4 days and images were collected every 4 hours on the Incucyte SX5, with 12 hour timepoints plotted on a graph (Sartorius) (FIG. 14). Either 2.5 nM or 5 nM of Endoxifen was tested in combination with either 0.5 nM, 1 nM or 10 nM of 4-OHT. 100 nM Endoxifen was added as positive killing control as per FIG. 13E.

human iPSCs [2] = test: Junction GAPT2A ddPCR of knock-in iPSC pools for integration at GAPDH locus, with or without 4-OHT; assay type: cell-based; settings: pooled iPSCs treated with 1 nM 4-OHT
Procedure: Modified ERT2 peptide-suicide protein fusion polypeptide encoding constructs were delivered to human iPSCs via Nucleofection with a GAPDH targeting ribonucleoprotein (RNP) complex comprising of Cpf1 endonuclease and a single guide RNA (sgRNA) targeting the coding sequence of the GAPDH gene. The sgRNA comprised a sequence 5′ […] 3′ (SEQ ID NO: 60). Briefly, iPSCs were cultured in Essential 8 (E8) medium and maintained at 37° C. at 5% CO2 level between passages. Passages were done at 75 to 80% confluency. On the day of Nucleofection, iPSCs were thawed and immediately Nucleofected in Lonza P3 Primary Cell Nucleofection buffer. 7.5 μg of each plasmid construct (BRC00058-61) were Nucleofected into iPSCs using GAPDH Cpf1 RNP with LONZA 4D Nucleofector. The Nucleofected cells were then plated at 50,000 cells/cm^2 per well of a 6-well plate and grown in E8 medium (plus Rock inhibitor Y-27632 from Tocris) for 72 to 96 hours. Knock-in pools were screened for integration 7d post-Nucleofection using ddPCR, as well as conventional PCR.
Whereas the integration dropped from 5.7% to 1% in Construct 1-transfected cell pools and from 4.5% to 0.7% in Construct 2-transfected cell pools when treated with 1 nM 4-OHT (FIG. 4A).

iPSCs = test: Apoptosis induction in transfected iPSCs monitored by microscopy and Incucyte tracking; assay type: cell-based, human; settings: construct-transfected iPSCs, 1 nM 4-OHT, up to two days
human iPSCs [3] = test: Flow cytometric analysis of cleaved Caspase-3 in transfected iPSCs; assay type: cell-based; settings: 1 nM 4-OHT, two-day treatment
Excerpt: In another set of assessments, Construct 1 or Construct 2 transfected iPSCs were harvested for flow cytometric analysis. The primary antibody used was an anti-human/mouse cleaved Caspase-3. The primary antibody detects human and mouse Caspase 3 cleaved at Asp175.

Molecule | fusion polypeptide sequence integration (junction GAPT2A ddPCR) (human iPSCs [2]) [%] | apoptosis / cell killing (iPSCs) | apoptosis (cleaved Caspase-3 flow cytometry) (human iPSCs [3]) | other results
CC/C(=C(\c1ccc(O)cc1)c1ccc(OCCNC)cc1)c1ccccc1 [Endoxifen, endoxifen, reference compound] |  |  |  | lowest effective concentration in 4-OHT-Endoxifen combination (iPSC clones; clone Construct 1 c.165): 1.25 nM; apoptosis in unedited cells ([1]; unedited differentiated myeloid progenitors, combination 4-OHT and Endoxifen treatment): did not induce apoptosis
Construct 1: GAPDH-targeting construct encoding modified ERT2 peptide-suicide protein fusion polypeptide ERT2*mut81-Casp9, SEQ ID NO: 44 (protein) AGDMRAANLWPSPLMIKRSKKNSLALSLTADQMVSALLDAEPPILYSEYDPTRPFSEASMMGLLTNLADRELVHMINWAKRVPGFVDLTLHDQVHLLECAWMEILMIGVVWRSMEHPVKLLFAPNLLLDRDQGKCVEGLVEIFDMLLATSSRFRMMNLQGEEFVCLKSIILLNSGVYTFLPSTLKSLEEKDHIHRVLDKITDTLIHLMAKAGLTLQQQHQRLAQLLLILSHIRHMSNKGMELLYSMKCKNVVPLYDLLLEAADAHRLHAPTSRGGASVEETDQSHLATAGSTSSHSLQKYYITGEAEGFPATGGGGSGGGGSGGGGSVDGFMDVGALESLRGNADLAYILSMEPCGHCLIINNVNFCRESGLRTRTGSNIDCEKLRRRFSSLHFMVEVKGDLTAKKMVLALLELARQDHGALDCCVVVILSHGCQASHLQFPGAVYGTDGCPVSVEKIVNIFNGTSCPSLGGKPKLFFIQACGGEQKDHGFEVASTSPEDESPGSNPEPDATPFQEGLRTFDQLDAISSLPTPSDIFVSYSTFPGFVSWRDPKSGSWYVETLDDIFEQWAHSEDLQSLLLRVANAVSVKGIYKQMPGCFNFLRKKLFFKTS | 1 | cells were completely killed by day 2 | able to induce apoptosis in the majority of the cells | apoptotic (killing) efficacy (iPSC clones; 1 nM 4-OHT): displayed higher efficacy than Construct 2-4 clones; also recorded: highest apoptotic efficacy; apoptotic (killing) efficacy (iPSC clones; 1 nM Endoxifen, compared to hygromycin control): approached the level of apoptosis by hygromycin control at 24 hours; apoptosis (kill switch activity) ([1]; 0, 1, 10 or 100 uM of Endoxifen over 3 days): induced apoptosis following endoxifen treatment
Construct 4: GAPDH-targeting construct encoding fusion polypeptide ERT2*mut41-Casp9, SEQ ID NO: 50 (protein) AGDMRAANLWPSPLMIKRSKKNSLALSLTADQMVSALLDAEPPILYSEYDPTRPFSEASMMGLLTNLADREIVHMINWAKRVPGFVDLTLHDQVHLLECAWLEILMIGVVWRSMEHPVKLLFAPNLVLDRDEGKCVEGMVEIFDMLLATSSRFRMMNLQGEEFVCLKSIILLNSGVYTFLSSTLKSLEEKDHIHRVLDKITDTLIHLMAKAGLTLQQQHQRLAQLLLILSHIRHMSNKGMELLYSMKCKNVVPLYDLLLEAADAHRLHAPTSRGGASVEETDQSHLATAGSTSSHSLQKYYITGEAEGFPATGGGGSGGGGSGGGGSVDGFMDVGALESLRGNADLAYILSMEPCGHCLIINNVNFCRESGLRTRTGSNIDCEKLRRRFSSLHFMVEVKGDLTAKKMVLALLELARQDHGALDCCVVVILSHGCQASHLQFPGAVYGTDGCPVSVEKIVNIFNGTSCPSLGGKPKLFFIQACGGEQKDHGFEVASTSPEDESPGSNPEPDATPFQEGLRTFDQLDAISSLPTPSDIFVSYSTFPGFVSWRDPKSGSWYVETLDDIFEQWAHSEDLQSLLLRVANAVSVKGIYKQMPGCFNFLRKKLFFKTS | 2.3 | cells were completely killed by day 2 |  | 
Construct 2: GAPDH-targeting construct encoding fusion polypeptide ERT2*mut88-Casp9, SEQ ID NO: 46 (protein) AGDMRAANLWPSPLMIKRSKKNSLALSLTADQMVSALLDAEPPILYSEYDPTRPFSEASMMGLLTNLADRELVHMINWAKRVPGFVDLTLHDQVHLLECAWLEILMIGVVWRSMEHPVKLLFAPNLLLDRDEGKCVEGMVEIFDMLLATSSRFRMMNLQGEEFVCLKSIILLNSGVYTFLPSTLKSLEEKDHIHRVLDKITDTLIHLMAKAGLTLQQQHQRLAQLLLILSHIRHMSNKGMEFLYSMKCKNVVPLYDLLLEAADAHRLHAPTSRGGASVEETDQSHLATAGSTSSHSLQKYYITGEAEGFPATGGGGSGGGGSGGGGSVDGFMDVGALESLRGNADLAYILSMEPCGHCLIINNVNFCRESGLRTRTGSNIDCEKLRRRFSSLHFMVEVKGDLTAKKMVLALLELARQDHGALDCCVVVILSHGCQASHLQFPGAVYGTDGCPVSVEKIVNIFNGTSCPSLGGKPKLFFIQACGGEQKDHGFEVASTSPEDESPGSNPEPDATPFQEGLRTFDQLDAISSLPTPSDIFVSYSTFPGFVSWRDPKSGSWYVETLDDIFEQWAHSEDLQSLLLRVANAVSVKGIYKQMPGCFNFLRKKLFFKTS | 0.7 | did not induce apoptosis | failed to do so | apoptotic (killing) efficacy (iPSC clones; 5 nM 4-OHT): able to induce apoptosis; apoptotic (killing) efficacy (iPSC clones; 10 nM Endoxifen, compared to hygromycin kill control): able to induce apoptosis
Construct 3: GAPDH-targeting construct encoding fusion polypeptide ERT2*mut63-Casp9, SEQ ID NO: 48 (protein) AGDMRAANLWPSPLMIKRSKKNSLALSLTADQMVSALLDAEPPILYSEYDPTRPFSEASMMGLLTNLADREIVHMINWAKRVPGFVDLTLHDQVHLLECAWLEILMIGVVWRSMEHPVKLLFAPNLLLDRDEGKCVEGLVEIFDMLLATSSRFRMMNLQGEEFVCLKSIILLNSGVYTFLSSTLKSLEEKDHIHRVLDKITDTLIHLMAKAGLTLQQQHQRLAQLLLILSHIRHASNKGMEFLYSMKCKNVVPLYDLLLEAADAHRLHAPTSRGGASVEETDQSHLATAGSTSSHSLQKYYITGEAEGFPATGGGGSGGGGSGGGGSVDGFMDVGALESLRGNADLAYILSMEPCGHCLIINNVNFCRESGLRTRTGSNIDCEKLRRRFSSLHFMVEVKGDLTAKKMVLALLELARQDHGALDCCVVVILSHGCQASHLQFPGAVYGTDGCPVSVEKIVNIFNGTSCPSLGGKPKLFFIQACGGEQKDHGFEVASTSPEDESPGSNPEPDATPFQEGLRTFDQLDAISSLPTPSDIFVSYSTFPGFVSWRDPKSGSWYVETLDDIFEQWAHSEDLQSLLLRVANAVSVKGIYKQMPGCFNFLRKKLFFKTS | 1.4 | cells were completely killed by day 2 |  | 
